Source: patent US20260166131A1, “METHOD FOR PROMOTING PATHOLOGICAL TDP-43 PROTEIN DEGRADATION, AND DRUG” (TALENGEN INTERNATIONAL LIMITED, priority 2022, published 2026)
Entries after “also recorded” stand apart in the source; their conditions may differ.

Experiments:
[1] = Plasminogen level (ELISA) and plasmin activity (enzyme substrate method) in brain homogenate of LPS-treated SOD1-G93A mice; format: in vivo, mouse; conditions: LPS 5 mg/kg intratracheal, 50 mg/kg tail vein single dose, 6 hours, vs vehicle group
Method: Eight 22-week-age SOD1-G93A mice were randomly divided into two groups: a vehicle group and a plasminogen group, with 4 mice in each group. 2.5 mg/mL bacterial lipopolysaccharide (LPS) (Beijing Solebow Technology Co., Ltd., L8880) was administered to the mice in the vehicle group and the plasminogen group via intratracheal instillation, with a modeling dose of 5 mg/kg. Four C57 mice of the same age were selected as normal control mice. Administration began 3 days after LPS treatment. […] The mice were killed 6 hours after the single administration, and the brain tissues were obtained. After homogenization, the plasminogen level was detected by ELISA, and the plasmin activity was detected by enzyme substrate method.

[2] = Plasmin activity in brain tissue of MPTP/LPS Parkinson's model mice (enzyme substrate kinetic method); format: in vivo, mouse; conditions: MPTP + LPS Parkinson's model mice, 50 mg/kg tail vein single dose, 2 hours, vs vehicle group, P<0.05
Method: Fifteen female mice were taken to weigh before modeling. […] All mice in the model group were intraperitoneally injected with 5 mg/mL MPTP solution at 35 mg/kg/mouse, and the mice in the blank control group were intraperitoneally injected with 7 mL/kg normal saline. The modeling time was set at 9 am every day, and the injections were continued for 5 days. 24 hours after the last MPTP injection, all mice were weighed and injected intraperitoneally with 5 mg/kg LPS solution. […] The plasmin activity in brain tissue homogenate was detected by enzyme substrate kinetic method. […] 85 μL/well of seven different concentrations of standard solution, blank, and sample were added to the ELISA plate in sequence, and then 15 μL of 20 mM S-2251 solution (Chromogenix, 82033239) was added to each well to incubate at 37° C. Starting from 0 min of reaction, the A405 absorbance value was read in a multifunctional microplate reader every 5 min until the reaction time was 90 min. All reactions were fitted with a straight line by time and absorbance, and the slope of the straight line was the reaction rate of the standard/sample (ΔA405/min). Finally, the potency value of the standard substance and ΔA405/min were used to create a standard curve to calculate the potency of the measured samples.

TDP-43 [3] = target: T1, TDP-43 (Mus musculus, UniProt Q921F2); experiment: Immunofluorescence co-localization staining of plasminogen and TDP-43 in spinal cord tissue of SOD1-G93A mice; format: in vivo; parameters: from tissue; host or cells: mouse spinal cord, gluteal muscle, brain, kidney cell nuclei; conditions: 1 mg/mouse tail vein every day
T1 sequence (Q921F2 whole entry): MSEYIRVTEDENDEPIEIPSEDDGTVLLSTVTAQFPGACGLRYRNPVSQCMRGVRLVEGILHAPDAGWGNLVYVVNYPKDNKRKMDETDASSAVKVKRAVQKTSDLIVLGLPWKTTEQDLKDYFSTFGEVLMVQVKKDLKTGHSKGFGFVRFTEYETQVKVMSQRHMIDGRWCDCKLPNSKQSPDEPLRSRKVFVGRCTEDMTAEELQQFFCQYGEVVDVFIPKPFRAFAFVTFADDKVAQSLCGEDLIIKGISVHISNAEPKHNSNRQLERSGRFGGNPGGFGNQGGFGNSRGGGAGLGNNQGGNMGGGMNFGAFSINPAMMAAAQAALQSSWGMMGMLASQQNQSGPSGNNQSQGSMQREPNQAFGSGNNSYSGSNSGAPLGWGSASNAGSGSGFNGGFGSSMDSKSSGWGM
Method: Five wild-type male mice and nine male SOD1-G93A mice of similar week-age were selected. Wild-type mice served as the blank control group, and SOD1-G93A mice were observed and recorded from the time of hind leg tremor when they became ill at week 14, and the onset time of each mouse was recorded. Administering to mice 14 days after the onset of the disease. All mice were randomly divided into a vehicle group and a plasminogen group according to the onset of the disease: 5 mice in the vehicle group, which were injected with 0.1 ml of vehicle (sodium citrate buffer)/mouse by tail vein every day; 4 mice in the plasminogen group, which were injected with 1 mg of plasminogen/0.1 ml of vehicle/mouse by tail vein every day. The vehicle and plasminogen were administered continuously under SPF environment, and the samples were collected at the near-death stage. The longest administration was 61 days. The spinal cord tissue collected was fixed in formalin fixative solution. The fixed tissues were dehydrated with gradient alcohol and transparentized with xylene before being embedded in paraffin. The thickness of tissue sections was 3 μm, and the sections were dewaxed and rehydrated and then washed once. The sections were immersed in antigen retrieval working solution (0.01 M sodium citrate buffer) to perform microwave retrieval: preheating for 5 minutes, high heating for 2 minutes, and low heating for 15 minutes. The tissue was circled with a PAP pen, then incubating in 3% hydrogen peroxide for 15 minutes, and washing twice with 0.01 M PBS for 5 minutes each time, blocking with 5% normal goat serum (Vector laboratories, Inc., USA) for 30 minutes. After the time for blocking is up, the goat serum is discarded, adding anti-plasminogen antibody (self-produced), then incubating at 4° C. overnight, and washing twice with 0.01M PBS for 5 minutes each time. The goat anti-rabbit IgG (HRP) antibody (Abcam) secondary antibody was added to incubate at room temperature for 1 hour, then washing twice with 0.01M PBS for 5 minutes each time. The green fluorescence color development of the corresponding anti-plasminogen secondary antibody was performed according to the instructions of the XTSA520 IHC kit (Alpha X Biotech, AXT6202500), washing 3 times with PBS for 5 minutes each time. The above antigen retrieval and blocking procedures were repeated, and then anti-TDP-43 antibody (Proteintech, 12892-1-AP) staining was performed, then incubating at 37° C. for 1 hour, washing 3 times with PBS for 5 minutes each time. […] The red fluorescence color development of the corresponding anti-TDP-43 secondary antibody was performed according to the instructions of the XTSA620 IHC kit (Alpha X Biotech, AXT6502500), washing 3 times with PBS for 5 minutes each time. […]

TDP-43 [4] = target: T1, TDP-43; experiment: TDP-43 in brain tissue of okadaic acid-induced dementia model (FAD) mice (Western blot); format: in vivo; parameters: from tissue; host or cells: mouse spinal cord, gluteal muscle, brain, kidney cell nuclei; conditions: okadaic acid in basolateral amygdala, 50 mg/kg tail vein single dose, 6 hours, vs vehicle group
Method: Ten B6SJL-Tg (APPSwFlLon, PSEN1*M146L*L286V) 6799Vas/Mmjax (hereinafter referred to as FAD) female mice aged 30-32 weeks (purchased from Jackson lab, stock number: 034840) were taken to weigh before modeling as the model group, and five C57 female mice aged 6-7 weeks were selected as the blank group. After grouping, mice in the blank group and model group were anesthetized by intraperitoneal injection of tribromoethanol at a dose of 20 mL/kg. Model mice were located in the basolateral amygdala according to the mouse stereotaxic atlas (according to the coordinates of the bregma: AP-1.94 mm, ML+3.15 mm, DV-4.5 mm), and each mouse was slowly microinjected bilaterally. Mice in the blank group were only drilled at the coordinate location point without injection. The mice in the model group were injected with 50 ng/μL okadaic acid (manufacturer: Shanghai Yuanye Biotechnology Co., Ltd., catalog number S30686-25 ug:) solution, the injection rate was 0.5 μL/min, the injection volume was 2 μL, and after the injection, the syringe stayed for 6 minutes and then slowly withdrew. […] The mice were killed 6 hours after the single administration and the brain tissues were obtained. After homogenization, TDP-43 was detected by western blot.

B1: plasminogen: human plasminogen purified from human donor plasma, in which human Lys-plasminogen and Glu-plasminogen are >98% (protein)
chain: KVYLSECKTGNGKNYRGTMSKTKNGITCQKWSSTSPHRPRFSPATHPSEGLEENYCRNPDNDPQGPWCYTTDPEKRYDYCDILECEEECMHCSGENYDGKISKTMSGLECQAWDSQSPHAHGYIPSKFPNKNLKKNYCRNPDRELRPWCFTTDPNKRWELCDIPRCTTPPPSSGPTYQCLKGTGENYRGNVAVTVSGHTCQHWSAQTPHTHNRTPENFPCKNLDENYCRNPDGKRAPWCHTTNSQVRWEYCKIPSCDSSPVSTEQLAPTAPPELTPVVQDCYHGDGQSYRGTSSTTTTGKKCQSWSSMTPHRHQKTPENYPNAGLTMNYCRNPDADKGPWCFTTDPSVRWEYCNLKKCSGTEASVVAPPPVVLLPDVETPSEEDCMFGNGKGYRGKRATTVTGTPCQDWAAQEPHRHSIFTPETNPRAGLEKNYCRNPDGDVGGPWCYTTNPRKLYDYCDVPQCAAPSFDCGKPQVEPKKCPGRVVGGCVAHPHSWPWQVSLRTRFGMHFCGGTLISPEWVLTAAHCLEKSPRPSSYKVILGAHQEVNLEPHVQEIEVSRLFLEPTRKDIALLKLSSPAVITDKVIPACLPSPNYVVADRTECFITGWGETQGTFGAGLLKEAQLPVIENKVCNRYEFLNGRVQSTELCAGHLAGGTDSCQGDSGGPLVCFEKDKYILQGVTSWGLGCARPNKPGVYVRVSRFVTWIEGVMRNN
plasmin activity in brain tissue homogenate [1]: significantly higher | plasminogen level in brain tissue homogenate [1]: significantly higher | level of plasmin activity in the brain tissue [2]: significantly higher | subcellular presence of plasminogen in spinal cord tissue (TDP-43 [3]): present in the cytoplasm (as indicated by A) and in the nucleus; also recorded: present in the cytoplasm (as indicated by Δ) and in the nucleus | level of TDP-43 in spinal cord tissue (TDP-43 [3]; immunofluorescence, vs vehicle group): lower than that in the vehicle group; also recorded: lower than that of the vehicle group | positive staining of plasminogen in spinal cord tissue (TDP-43 [3]; up to 61 days, vs vehicle group): significantly more | co-localization of plasminogen and TDP-43 in spinal cord tissue (TDP-43 [3]; vs vehicle group): more than that in the vehicle group | level of TDP-43 monomer in brain tissue (TDP-43 [4]): significantly lower | level of low molecular weight TDP-43 in brain tissue (TDP-43 [4]): significantly lower
